Assay: yeast display, Sf9 membrane polyspecificity reagent, FACS + sequencing; frameworks hold sequencing errors
How it was run: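 Genes from sorted yeast were amplified by colony PCR, read by MiSeq 2 × 250 sequencing and filtered on CDR length. These cells carried a synthetic nanobody library in Saccharomyces cerevisiae BJ5465 and were sorted by FACS into low and high (top ~1%) gates on anti-HA and streptavidin fluorescence. Polyreactivity is labelled according to the gate of origin.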

| Sequence | polyreactivity (PSR sort gate) |
| --- | --- |
| QVQLVESGGGLVQAGGSLRLSCAASGFIFTQYAMGWYRQAPGKERELVAAISTSGGRTFYADSVKGRFTISRDNAKNTVYLQMNSLKPEDTAVYYCGARPGYLYDYWGQGTQVTVSS | high polyreactivity |
| QVQLVESGGGLVQAGGSLRLSCAASGSTFINYARGWYSQAPGKERELVAVITSDDGSTYDADSVKGRFTISRDNAKNTVYLQMNSLKPEDTAVYYCAAYYYDQRYRPGPWYDYWGQGTQVTVSS | low polyreactivity |
| QVQLVESGGGLVQAGGSLRLSCAASGSIFVLYAMGWYRQAPGKERELVAAIDFGGGSTYYADSVKGRFTISRDNAKNTVYLQMNSLKPEYTAVYYCAAELYYTYRWYDYWGQGTQVTVSS | high polyreactivity |
| QVQLVESGGGLVQAGGSLRLSCPASGTIFYVNAMGLYRQEPGKETEFVAAITGGASTNFADSVKGRFTSSRDNAKNTVYLQMNSLKPEDTAVYYCAVDPVGHATRVWTYHYDYWGQGTQVTVSS | low polyreactivity |
| QLQLVESGGGLVQAGGSLRLSCAASGRTFRINTMGWYRPAPGKERELVATITGSGGSTYYADSVKGRFTISRDNAKNTVYLQMNSLKPEDTAVYYCAAVGDQNEYDYWGQGTQVTVSS | low polyreactivity |
| QVHLVESGGCLVQAGGSLRLICAASGRIFDGNTMGWYRQEPGKERELVAAISGVGSTDYADSVKGRYTISRDNAKNTVYFQINSLKPEDTAVYYCAATTGPVPLKGDYWGQGTQVTVSS | low polyreactivity |
| QVQLVESGGGLVQAGGSLRLSCAASGFTFSCYAMGWYRQAPGKEREFVAAISRRGAITSYADSVKGRFTISRDNAKNTVYLQMNSLKPEDTAVYYCNARYPHYYYSAYNYWGQGSQVTVSS | high polyreactivity |
| QVQLVESGGGLVQAGGSLRLSCAASGSIFSKYVMGWYRQAPGKQTELVAAISWSGTRTYYADSVKGRFTISRDNAKNTVYLQMNSLKPEDTAVYYCAALRLYAGHQYDYWGQGTQVTVSS | high polyreactivity |
| QVQLVESWGGLVQAGGSLRLSCAASGIIFQNYDMGWYRQAPGKERELVAAITGSGGSTYYADSVKGRFTISRDNAKNIVYLQMNSLKPEDTAVYYCAASSFVVSGYNKYYEYGYWGQGTQVTVSS | low polyreactivity |
| QDQLVESGGGLVQAGGSLRLSCAASGFTFYPYAMGWYRQAPGKERELVAAITYIGSTYYADSVKGRFTISRDNAKNTVYLQMNSLKPEDTAVYYCAAVKVFLGLGYDYWGQGTQVTVSS | low polyreactivity |
| QVQLVESGGGLVHAGGSLRLSCASSGFTYSQYVMGWYRQAPGKERELVASITGNGGSTRYADSVKGRFTISRDNANKTVYLQMNCLKPEDTAVYYCDTRVKFSTSYWLYYWGQGTQVTVSS | high polyreactivity |
| QVQLVESRGGLVQAGGSLRLSCAASVSTFSDYSIGWYRQATGKERELVAGITGGGGTYYADSVKGRFTISRDNAKNTVYLQMNSLKPEDTAVYYCAAGRRHGFGYWGQGTQVTVSS | low polyreactivity |
| QVQLVESGGGLVQAGGSLRLSCAASGFISTPYAMGWYRQAPGKERELVAAIDISGGRTYYADSVKGRFTISRDNAKNTVYLQMNSLKPEDTAVYYCAAQLVSSYYAWYRTYYYWGQGTQVTVSS | high polyreactivity |
| QVQLVESGGGLVQAGGSLRFSCAASGRTFYPYAMGWYRQAPGKERELVAAINGGGRTYYADSVKGRFTISRDNAKNTVYLQMNSLKPEDTAVYYCATRYPAWRYDYNYWGQGTQVSVSS | high polyreactivity |
| QVQLVESGGGLVQAGGSLRLSCAASGFTFWGYTMGWYRQAPGKERELVAAITSTGSTYYADSVKGRFTISRDNAKNTVYFLMNSLKPEDTAVYYCAATRGSSEYYYWGQGTQLTVSS | low polyreactivity |
| QVQLVESGGGLVQAGGSLRLSCAASGSTFFLYAMGCYRQAPGNERELVAAISWRGASTYYADSVNGSFTISRDNAKNSVYLQMNSLKPDDTAVYYCAADLLPLYDDWGQGTQVTVSS | high polyreactivity |
| QVQLVESGGGLVQAGGSLRLSCAASGSNFKRYTMGLYRQAPGKEWELVAAISTSSGSTYYADSVKGRFTISRDNANNSVYLQMNSLKPEDTAVYYCAAVRHRQTYPKYNYWGQGTQVTVSS | high polyreactivity |
| QVQLVESGGGLVQAGGSLRLSCAASGFIYDKYVMGWSRQAPGKERQLVAAISSGGSTYYADSVKGRFTISRDNAKNTVYLQMNSLKPEDTAVYYCNAGGFWPWVYGYDSWGQGTQVTVSS | high polyreactivity |
| QVQLVESGGGLVQAGGSLRLSCAASGRIFTRYAIGWYRQAPGKERELVAAITYNGGSTYYADSVKGRFTISRDNAKNTVYLQMNSLKPEDTAVYDCNAVYLSWFGLFAGFDYWGQGTQVTVSS | high polyreactivity |
| QVQLVESGGGLVQERGSLRLSCAASGRIFGKYAMAWYRLAPGKERELVATISYGGGNTYYADSVKGRFTISRDNAKNTVYLQMNSMKPEDTAVYYCARVPYAYLRYKPFQQYSYDYWGQGTKVTVSS | high polyreactivity |
| QVQLVESGGGLVQAGGSLRLSCAASGIIFTVYAMGWYRQAPGKERELVAAITWSGGSTYYADSVKGRFTISRDNAKNTVYLQMNSLKPEDTAVYYCNKVGRVWDVETDGDYDYWGQGTQVTVSS | low polyreactivity |
| QVQLVESGGGLVQAGGSLRLSCAASGSIYVWYDMGWYRQAPGKERELVDTISLSGVSTYYADSVKGRFTISRDNAKNTVYLQMNSLKPEDTAVYYCAADFVEQGEDDYWGQGTQVTVSS | low polyreactivity |
